The RNAGym collection of RNA variant scans (doi:10.7554/elife.80360)

B1: Hairpin Ribozyme (parent)
chain: GUCCUCUUUCACGUGCGCGUGAAAGAGAGAAGUGAACCAGAGAAACACACGUUGUGGUAUAUUACCUGGUA

Variants of: B1
Test: self-cleavage, relative activity (ratio to wild type); higher = more cleavage; co-transcriptional

Compared with U5C C6A, C4U G29C is lower in self-cleavage: 0.393 for the first, 0.108 for the second.

Compared with C4G G34C, C4G U58A is lower in self-cleavage: 1.19 for the first, 0.108 for the second.

First: C4G U58C
Second: C4U G25C
The self-cleavage of the first is higher: 0.403 for the first, 0.11 for the second.

First: C4U G25U
Second: U5A U67G
The self-cleavage of the first is higher: 0.126 for the first, 0.112 for the second.

Compared with C4U A22G, C4U U33C is higher in self-cleavage: 0.236 for the first, 0.237 for the second.

Compared with C4U C66U, U5G U52A is higher in self-cleavage: 0.234 for the first, 0.444 for the second.

First: U5G C10G
Second: U5G C10A
The self-cleavage of the first is lower: 0.164 for the first, 0.235 for the second.

Going from C6A A22U to C6A A22C, the self-cleavage rises from 0.352 to 0.541.

Compared with U5C A30U, U5G G27A is higher in self-cleavage: 0.11 for the first, 0.216 for the second.

Compared with U5G G27U, C4A U58C is higher in self-cleavage: 0.0644 for the first, 0.293 for the second.

Compared with U5G A22G, C4U A30U is lower in self-cleavage: 0.251 for the first, 0.13 for the second.

First: U5G A24C
Second: U5G U7A
The self-cleavage of the first is higher: 0.273 for the first, 0.2 for the second.

Compared with U5C G13A, U5C G13U is lower in self-cleavage: 0.591 for the first, 0.579 for the second.

Compared with U5G C16A, C4G G42C is lower in self-cleavage: 0.435 for the first, 0.17 for the second.

Compared with U5G A49C, U5G A49G is lower in self-cleavage: 0.205 for the first, 0.109 for the second.

Going from U5C G69C to C4U A11C, the self-cleavage rises from 0.0944 to 0.191.

Compared with C4G C10A, C4G C10G is lower in self-cleavage: 0.12 for the first, 0.114 for the second.

Compared with C4A U60G, C4A U60C is higher in self-cleavage: 0.139 for the first, 0.521 for the second.

First: U5C C65G
Second: U5G A45U
The self-cleavage of the first is lower: 0.0463 for the first, 0.0709 for the second.

Compared with U5G A45C, U5A C10G is higher in self-cleavage: 0.122 for the first, 0.129 for the second.

First: U5A C10A
Second: U5C A71G
The self-cleavage of the first is lower: 0.188 for the first, 0.389 for the second.

Going from U5A U33A to U5C A31U, the self-cleavage falls from 0.145 to 0.0715.

Compared with U5C A31C, U5C A31G is higher in self-cleavage: 0.0543 for the first, 0.391 for the second.

Going from U5G U62G to U5C C66A, the self-cleavage falls from 0.145 to 0.143.

First: U5C C37U
Second: U5G G32U
The self-cleavage of the first is higher: 0.348 for the first, 0.132 for the second.

First: U5G G32A
Second: U5C C48G
The self-cleavage of the first is lower: 0.0653 for the first, 0.0712 for the second.

Compared with U5C C48U, U5C U14A is higher in self-cleavage: 0.0847 for the first, 0.428 for the second.

First: U5G U20C
Second: U5C G17C
The self-cleavage of the first is lower: 0.337 for the first, 0.339 for the second.

Going from C4U G32A to U5C G25A, the self-cleavage rises from 0.196 to 0.265.

Going from U5G C66U to C4G U33A, the self-cleavage falls from 0.223 to 0.154.

Going from C4U C50G to C4G G56C, the self-cleavage rises from 0.11 to 0.111.

First: C4A U63A
Second: C4A U63C
The self-cleavage of the first is lower: 0.101 for the first, 0.115 for the second.

Compared with C4A U63G, C4G U7G is lower in self-cleavage: 0.269 for the first, 0.144 for the second.

First: C4G U5C
Second: C4G G29A
The self-cleavage of the first is higher: 0.112 for the first, 0.0497 for the second.

First: U5A C38G
Second: U5G G40A
The self-cleavage of the first is higher: 0.0942 for the first, 0.0651 for the second.

Compared with U5C A28G, U5C A28U is lower in self-cleavage: 0.358 for the first, 0.277 for the second.

First: C4G G19U
Second: C4G G19A
The self-cleavage of the first is higher: 0.225 for the first, 0.143 for the second.

First: U5G U9C
Second: U5A G29A
The self-cleavage of the first is higher: 0.197 for the first, 0.156 for the second.

Going from U5A G29U to U5A U58G, the self-cleavage rises from 0.0792 to 0.251.

Compared with C4G G17A, C4U G51C is higher in self-cleavage: 0.159 for the first, 0.337 for the second.

Compared with U5A U52C, U5A U52G is higher in self-cleavage: 0.274 for the first, 0.392 for the second.

First: U5G G19A
Second: U5G G19U
The self-cleavage of the first is lower: 0.243 for the first, 0.274 for the second.

First: U5A A23C
Second: U5A A23U
The self-cleavage of the first is higher: 0.436 for the first, 0.323 for the second.

Compared with C4U G42U, C4U G54U is higher in self-cleavage: 0.129 for the first, 0.198 for the second.

Compared with U5C G57U, C4U A64G is higher in self-cleavage: 0.138 for the first, 0.25 for the second.

First: C4U A64C
Second: U5A A61U
The self-cleavage of the first is lower: 0.181 for the first, 0.185 for the second.

Going from U5A A61G to C4U C46U, the self-cleavage rises from 0.0553 to 0.152.

Going from C4U G56U to C4U G56C, the self-cleavage rises from 0.126 to 0.214.

Compared with U5C A39U, C4U A43C is lower in self-cleavage: 0.228 for the first, 0.128 for the second.

First: C4U U9A
Second: U5G A61G
The self-cleavage of the first is higher: 0.202 for the first, 0.0248 for the second.

Going from C4U G40U to C4A U62G, the self-cleavage rises from 0.0478 to 0.1.

First: C4G A64C
Second: U5A U62A
The self-cleavage of the first is higher: 0.167 for the first, 0.139 for the second.

Compared with U5A U62C, U5C U53C is higher in self-cleavage: 0.224 for the first, 0.317 for the second.

Compared with U5C U53A, C4G U9G is lower in self-cleavage: 0.535 for the first, 0.164 for the second.

First: C4G U9C
Second: U5C A47G
The self-cleavage of the first is lower: 0.274 for the first, 0.332 for the second.

Going from U5C A61U to C4U A71C, the self-cleavage rises from 0.105 to 0.622.

Going from C4G C12U to U5C G27A, the self-cleavage rises from 0.187 to 0.247.

First: C4U U53A
Second: C4U G15U
The self-cleavage of the first is higher: 0.358 for the first, 0.32 for the second.

Compared with C4U G15C, C4U G15A is higher in self-cleavage: 0.232 for the first, 0.33 for the second.

Going from C4A U67C to U5C C10U, the self-cleavage rises from 0.0871 to 0.423.

First: U5C C10A
Second: U5C C46A
The self-cleavage of the first is higher: 0.427 for the first, 0.139 for the second.

Going from C6A A11G to C4U U58C, the self-cleavage falls from 0.635 to 0.495.

Going from U5A A44U to C4G G15U, the self-cleavage rises from 0.125 to 0.185.

Going from C4U A28U to U5A A59C, the self-cleavage rises from 0.178 to 0.262.

Compared with C4U G69C, C4U G69A is lower in self-cleavage: 0.204 for the first, 0.12 for the second.

Compared with C4G G27U, U5C C50G is lower in self-cleavage: 0.31 for the first, 0.147 for the second.

Compared with U5C C38G, U5C A11G is higher in self-cleavage: 0.115 for the first, 0.481 for the second.

Going from U5C A11U to C4G U14C, the self-cleavage falls from 0.55 to 0.125.

Compared with U5C A22G, U5A A35C is lower in self-cleavage: 0.63 for the first, 0.364 for the second.

First: C4A U70G
Second: C4G A49C
The self-cleavage of the first is lower: 0.154 for the first, 0.161 for the second.

Going from U5G U63C to C4G C66G, the self-cleavage rises from 0.116 to 0.209.

Going from U5C U20G to U5C U20C, the self-cleavage rises from 0.508 to 0.673.

Compared with U5C C16A, C4G A47C is lower in self-cleavage: 0.693 for the first, 0.13 for the second.

Compared with C4G A47U, U5A A30G is higher in self-cleavage: 0.0972 for the first, 0.119 for the second.

First: U5A A30U
Second: U5A G25C
The self-cleavage of the first is higher: 0.263 for the first, 0.162 for the second.

Going from U5A G25A to C4G U8G, the self-cleavage falls from 0.106 to 0.0927.

Going from C4G U20G to U5G A47C, the self-cleavage falls from 0.22 to 0.102.

First: U5G A26C
Second: U5C C12A
The self-cleavage of the first is higher: 0.68 for the first, 0.566 for the second.

Compared with U5C C12G, U5C A45G is lower in self-cleavage: 0.244 for the first, 0.157 for the second.

Going from U5C A45U to U5G A59C, the self-cleavage falls from 0.133 to 0.13.

Compared with U5G A59G, C4G C50U is higher in self-cleavage: 0.0492 for the first, 0.154 for the second.

First: C4U G13C
Second: C4U G13U
The self-cleavage of the first is lower: 0.282 for the first, 0.314 for the second.

Going from C4G U63G to C4G U63A, the self-cleavage rises from 0.217 to 0.252.

Work on U5C A43U yielded a self-cleavage of 0.0569.
